Molecular target: H1 hemagglutinin (A/New Caledonia/20/1999(H1N1)), recombinant HA trimer used for electron microscopy (influenza A virus A/New Caledonia/20/1999 (H1N1)) (UniProt Q6WG00)
Assay: cryo-EM structure

With “H1 hemagglutinin (A/New Caledonia/20/1999(H1N1)), recombinant HA trimer used for electron microscopy (from UniProt Q6WG00 1-565) (natural protein)” the stoichiometry N was 3.

— paper doi:10.1101/2023.08.23.554525
